From patent EP2644619A1 (Spiber Technologies AB, dated 2013)
Residue numbers refer to the chain shown, from its start.

B1: NT (wild type N-terminal fragment of Euprosthenops australis major spidroin 1) (protein)
chain: GSGNSHTTPWTNPGLAENFMNSFMQGLSSMPGFTASQLDDMSTIAQSMVQSIQSLAAQGRTSPNKLQALNMAFASSMAEIAASEEGGGSLSTKTSSIASAMSNAFLQTTGVVNQPFINEITQLVSMFAQAGMNDVSA
B2: NT^A72R (other)
chain: B1 chain with A72R
notes: also called mutated NT; mutant NT

Assays:
[1] = biological target: NT (wild type N-terminal fragment of Euprosthenops australis major spidroin 1) (Euprosthenops australis); assay: tryptophan fluorescence, 5 uM protein, between pH 7 and pH 6; the filing uses it as a probe of dimerisation
[2] = biological target: the molecule itself; assay: comparative structural studies, pH lowered from 7 to 6 (self-association)

Row | Binder | red-shift in fluorescence emission [1] [nm] | binding result [2]
1 | B1 | 15 | –
2 | B2 | – | no binding
